In publication PMC12008302:

B1: α-L-iduronidase (hIDUA): M6P-IDUA (Endo-D, then Endo-M N175Q transglycosylation) (protein)
parent chain: MRPLRPRAALLALLASLLAAPPVAPAEAPHLVHVDAARALWPLRRFWRSTGFCPPLPHSQADQYVLSWDQQLNLAYVGAVPHRGIKQVRTHWLLELVTTRGSTGRGLSYNFTHLDGYLDLLRENQLLPGFELMGSASGHFTDFEDKQQVFEWKDLVSSLARRYIGRYGLAHVSKWNFETWNEPDHHDFDNVSMTMQGFLNYYDACSEGLRAASPALRLGGPGDSFHTPPRSPLSWGLLRHCHDGTNFFTGEAGVRLDYISLHRKGARSSISILEQEKVVAQQIRQLFPKFADTPIYNDEADPLVGWSLPQPWRADVTYAAMVVKVIAQHQNLLLANTTSAFPYALLSNDNAFLSYHPHPFAQRTLTARFQVNNTRPPHVQLLRKPVLTAMGLLALLDEEQLWAEVSQAGTVLDSNHTVGVLASAHRPQGPADAWRAAVLIYASDDTRAHPNRSVAVTLRLRGVPPGPGLVYVTRYLDNGLCSPDGEWRRLGRPVFPTAEQFRRMRAAEDPVAAAPRPLPAGGRLTLRPALRLPSLLLVHVCARPEKPPGQVTRLRALPLTQGQLVLVWSDEHVGSKCLWTYEIQFSQDGKAYTPVSRKPSTFNLFVFSPDTGAVSGSYRVRALDYWARPGPFSDPVPYLEVPVPRGPPSPGNP
B2: α-L-iduronidase (hIDUA): SG-IDUA (Endo-CC N180H transglycosylation) (protein)
parent chain: B1 parent chain
B3: α-L-iduronidase (hIDUA): M6P-IDUA (protein)
parent chain: B1 parent chain
B4: α-L-iduronidase (hIDUA): SG-IDUA (protein)
parent chain: B1 parent chain

Legend:
[1] = intracellular IDUA activity 24 h after enzyme addition; conditions: glycan changed form; control: HM-IDUA
[2] = AcidiFluor ORANGE live-cell imaging of lysosomal delivery; conditions: glycan changed form; control: AFO-labeled HM-IDUA

| Protein | other: cellular uptake [1] | localisation_or_trafficking [2] |
| --- | --- | --- |
| B1 | increases | – |
| B2 | increases | – |
| B3 | – | increases |
| B4 | – | increases |
